Measured values reported in publication PMC5846801, “Disease Variants of FGFR3 Reveal Molecular Basis for the Recognition and Additional Roles for Cdc37 in Hsp90 Chaperone System” (Structure(London, England:1993), 2018).
Where a chain is given by its changes, count along the chain named. Numbers in names are those of the source.

B1: non-phosphorylated Cdc37 (natural protein)
chain: MVDYSVWDHIEVSDDEDETHPNIDTASLFRWRHQARVERMEQFQKEKEELDRGCRECKRKVAECQRKLKELEVAEGGKAELERLQAEAQQLRKEERSWEQKLEEMRKKEKSMPWNVDTLSKDGFSKSMVNTKPEKTEEDSEEVREQKHKTFVEKYEKQIKHFGMLRRWDDSQKYLSDNVHLVCEETANYLVIWCIDLEVEEKCALMEQVAHQTIVMQFILELAKSLKVDPRACFRQFFTKIKTADRQYMEGFNDELEAFKERVRGRAKLRIEKAMKEYEEEERKKRLGPGGLDPVEVYESLPEELQKCFDVKDVQMLQDAISKMDPTDAKYHMQRCIDSGLWVPNSKASEAKEGEEAGPGDPLLEAVPKTGDEKDVSV
notes: human Hsp90 co-chaperone Cdc37, expressed from pET28 (gift of C. Vaughan; Vaughan et al., 2006), not phosphorylated; Used in ITC and in the auto-phosphorylation assay and in the comparison with the phosphorylated form; No tag removal step is described; also called CDC37^Apo; Cdc37^Apo; source: E. coli C41 (DE3), purified (HisTrap, HiTrap Q, Superdex 200)
B2: FGFR3 kinase domain variant E466K (domain or fragment)
chain: SELELPADPKWKLSRARLTLGKPLGEGCFGQVVMAEAIGIDKDRAAKPVTVAVKMLKDDATDKDLSDLVSEMEMMKMIGKHKNIINLLGACTQGGPLYVLVEYAAKGNLREFLRARRPPGLDYSFDTCKPPEEQLTFKDLVSCAYQVARGMEYLASQKCIHRDLAARNVLVTEDNVMKIADFGLARDVHNLDYYKKTTNGRLPVKWMAPEALFDRVYTHQSDVWSFGVLLWEIFTLGGSPYPGIPVEELFKLLKEGHRMDKPANCTHDLYMIMRECWHAAPSQRPTFKQLVEDLDRVLTVTSTDEYLDLSAPFE
notes: FGFR3 kinase domain, amino acids 455-768 of human FGFR3, disease-linked (cancer) mutation E466K; also called FGFR3^E466K; source: E. coli C41 (DE3), co-expressed with lambda phosphatase, purified (HisTrap, HiTrap Q, Superdex 200)
B3: FGFR3 kinase domain variant I538F (domain or fragment)
chain: B2 chain with K12E, I84F
notes: FGFR3 kinase domain, amino acids 455-768 of human FGFR3, disease-linked (cancer) mutation I538F; pJ821 construct; 15N labelled for NMR; also called FGFR3^I538F; GFR3^I538F; source: E. coli C41 (DE3), co-expressed with lambda phosphatase, purified (HisTrap, HiTrap Q, Superdex 200); not shown: His-SUMO, N-terminal, cleaved
B4: FGFR3 kinase domain variant N540K (domain or fragment)
chain: B2 chain with K12E, N86K
notes: FGFR3 kinase domain, amino acids 455-768 of human FGFR3, disease-linked mutation N540K; pJ821 construct; also called FGFR3^N540K; source: E. coli C41 (DE3), co-expressed with lambda phosphatase, purified (HisTrap, HiTrap Q, Superdex 200); not shown: His-SUMO, N-terminal, cleaved

Assays:
Conditions in all cases: both partners purified
[1] = molecular target: B3; experiment: ITC; kinase domain in the cell (FGFR3 WT 19.4 μM, FGFR3 I538F 16.9 μM), Cdc37 Apo 211.7 μM in the syringe; 25 mM Tris.Cl, 50 mM NaCl, 5 mM MgCl2, 0.1 mM TCEP, pH 7.5, 20 °C; single site model
Hsp90α = molecular target: T1, Hsp90α (human, UniProt P07900 1-732); experiment: SEC; ternary mixture: 15 μM kinase, 15 μM Cdc37, 30 μM Hsp90α (1:1:2), 15 min at 4 °C; Superdex 200 Increase, 25 mM Tris.Cl, 150 mM NaCl, 1 mM TCEP, pH 8.0, 4 °C; fractions by SDS-PAGE and ELISA
T1 construct: human Hsp90α, expressed from pRSET (gift of C. Vaughan; Vaughan et al., 2006); Used at a 2:1:1 ratio to Cdc37 and kinase; source: E. coli C41 (DE3), purified (HisTrap, HiTrap Q, Superdex 200)

non-phosphorylated Cdc37 = molecular target: B1; experiment: ITC; kinase domain in the cell (FGFR3 WT 19.4 μM, FGFR3 I538F 16.9 μM), Cdc37 Apo 211.7 μM in the syringe; 25 mM Tris.Cl, 50 mM NaCl, 5 mM MgCl2, 0.1 mM TCEP, pH 7.5, 20 °C; single site model

Row | Binder | stoichiometry N [1] | binding result (Hsp90α) | Kd (non-phosphorylated Cdc37) [nM]
1 | B1 | 1 |  | 
2 | B2 |  | binds | 
3 | B3 |  | binds | 1800
4 | B4 |  | binds | 
